Reference: publication PMC11117730 (2024)
Read-outs that look alike come from different tables or passages of the source. Each block holds one binder with its values, some of them ahead of it.

Columns and labels:
Assay in all cases: SPR
[1] = molecular target: T1, mouse IL-33 (mouse, UniProt Q8BVZ5 1-266)
T1 chain: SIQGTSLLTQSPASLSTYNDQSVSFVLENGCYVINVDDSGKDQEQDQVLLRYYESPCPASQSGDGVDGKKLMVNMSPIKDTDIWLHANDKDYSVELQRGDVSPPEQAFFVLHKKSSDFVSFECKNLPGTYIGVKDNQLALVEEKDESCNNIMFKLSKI

[2] = molecular target: T2, anti-IL-17A-sST2 (mouse, UniProt P14719 27-332)
[3] = molecular target: T2, anti-IL-17A-sST2; remark: listed apart in the source
[4] = molecular target: anti-IL-17A

koff [1]: 0.000199 s⁻¹
B1: sST2-Fc (Fc fusion)
chain: SKSSWGLENEALIVRCPQRGRSTYPVEWYYSDTNESIPTQKRNRIFVSRDRLKFLPARVEDSGIYACVIRSPNLNKTGYLNVTIHKKPPSCNIPDYLMYSTVRGSDKNFKITCPTIDLYNWTAPVQWFKNCKALQEPRFRAHRSYLFIDNVTHDDEGDYTCQFTHAENGTNYIVTATRSFTVEEKGFSMFPVITNPPYNHTMEVEIGKPASIACSACFGKGSHFLADVLWQINKTVVGNFGEARIQEEEGRNESSSNDMDCLTSVLRITGVTEKDLSLEYDCLALNLHGMIRHTIRLRRKQPIDHR

koff [2]: 0.000143 s⁻¹
B2: mouse IL-33 (ligand)
chain: MRPRMKYSNSKISPAKFSSTAGEALVPPCKIRRSQQKTKEFCHVYCMRLRSGLTIRKETSYFRKEPTKRYSLKSGTKHEENFSAYPRDSRKRSLLGSIQAFAASVDTLSIQGTSLLTQSPASLSTYNDQSVSFVLENGCYVINVDDSGKDQEQDQVLLRYYESPCPASQSGDGVDGKKLMVNMSPIKDTDIWLHANDKDYSVELQRGDVSPPEQAFFVLHKKSSDFVSFECKNLPGTYIGVKDNQLALVEEKDESCNNIMFKLSKI

Kd [3]: 0.0457 nM | koff [3]: 2.17e-05 s⁻¹ | Kd [4]: 0.0265 nM | koff [4]: 1.57e-05 s⁻¹
B3: mouse IL-17A (protein)
chain: AAIIPQSSACPNTEAKDFLQNVKVNLKVFNSLGAKVSSRRPSDYLNRSTSPWTLHRNEDPDRYPSVIWEAQCRHQRCVNAEGKLDHHMNSVLIQQEILVLKREPESCPFTFRVEKMLVGVGCTCVASIVRQAA
